Experimental data as given in patent US20260232831A1 (FRONTAIM BIOMEDICINES, published 2026).

T1: human Trop2 on the cell surface (A-431, ME-180, MDA-MB-468 cells) (human, UniProt P09758 27-323)
T1 construct: whole, on cells; Endogenous Trop2 on Trop2-positive tumour cell lines used in flow cytometry and cytotoxicity assays; also called TACSTD2; tumor-associated calcium signal transducer 2
T1 sequence (looked up): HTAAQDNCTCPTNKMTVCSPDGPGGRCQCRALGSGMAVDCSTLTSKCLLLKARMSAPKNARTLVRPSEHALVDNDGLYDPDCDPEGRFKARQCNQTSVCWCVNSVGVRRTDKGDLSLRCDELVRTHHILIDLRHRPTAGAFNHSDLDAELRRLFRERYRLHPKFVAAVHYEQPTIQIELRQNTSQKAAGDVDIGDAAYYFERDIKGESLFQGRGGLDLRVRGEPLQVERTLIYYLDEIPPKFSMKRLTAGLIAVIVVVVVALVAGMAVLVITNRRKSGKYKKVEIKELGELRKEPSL


Tests used:
[1] = target: T1, human Trop2 on the cell surface (A-431, …); test: flow cytometry on ME-180 cells, AF488 goat anti-human IgG Fc detection
Protocol: For CD3 binding, Jurkat cells were dispensed into a 96-well plate at 2×10⁵/well, and incubated with indicated agents at 4° C. for 45 min. After wash with PBS, cells were incubated with AF488 labeled goat anti-human IgG Fe. For Trop2 binding, ME-180 cells were dissociated from culture, dispensed into a 96-well plate at 2×10⁵/well, and incubated with indicated agents at 4° C. for 45 min. After wash with PBS, cells were incubated with AF488 labeled goat anti-human IgG Fc. Binding was analyzed by low cytometry using Attune N×T Flow Cytometer.
After wash with PBS, cells were incubated with a AF488 labeled goat anti-human IgG Fc secondary antibody at 4° C. for another 45 min. After two wash steps, binding was analyzed by flow cytometry using Attune N×T Flow Cytometer.

[2] = target: T2, human CD3 on Jurkat cell surface (human, UniProt P07766 23-207); test: flow cytometry on Jurkat cells, AF488 goat anti-human IgG Fc detection
T2 construct: whole, on cells; also called cell surface CD3 of Jurkat
T2 sequence (P07766 23-207): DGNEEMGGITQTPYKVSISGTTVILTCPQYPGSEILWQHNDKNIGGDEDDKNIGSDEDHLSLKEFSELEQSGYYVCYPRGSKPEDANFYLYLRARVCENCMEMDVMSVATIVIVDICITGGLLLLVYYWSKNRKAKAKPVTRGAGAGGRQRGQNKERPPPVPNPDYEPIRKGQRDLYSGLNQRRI
Protocol: For CD3 binding, Jurkat cells were dispensed into a 96-well plate at 2×10⁵/well, and incubated with indicated agents at 4° C. for 45 min. After wash with PBS, cells were incubated with AF488 labeled goat anti-human IgG Fc. […] After wash with PBS, cells were incubated with AF488 labeled goat anti-human IgG Fe.
After wash with PBS, cells were incubated with a AF488 labeled goat anti-human IgG Fc secondary antibody at 4° C. for another 45 min.

[3] = target: T1, human Trop2 on the cell surface (A-431, …); test: flow cytometry on A-431 cells, AF488 goat anti-human IgG Fc detection
Protocol: All incubations were 45 min at 4° C. plus washes with 1% BSA in PBS between incubations. Binding signal was measured by Attune™ N×T Acoustic Focusing Cytometer (ThermoFisher Scientific).

[4] = target: T1, human Trop2 on the cell surface (A-431, …); test: cell-based or functional assay

EC50 (read off the curve) [1] [nM]	binding result [2]	EC50 (read off the curve) [3] [nM]	Binder	IC50, 60-hour MTS viability assay, BT-474 cells with human PBMCs (10:1) [4] [nM]	IC50, 60-hour MTS viability assay, HCT116 cells with human PBMCs (10:1) [4] [nM]	IC50, 60-hour MTS viability assay, MDA-MB-231 cells with human PBMCs (10:1) [4] [nM]	IC50, 60-hour MTS viability assay, MDA-MB-468 cells with human PBMCs (10:1) [4] [pM]
~6	no binding (tested: 20.0 nM)	~10	humanized anti-Trop2 antibody hL0125 (antibody, V domains shown, Variable regions were cloned into human IgG expression vectors to give a full-size humanized IgG; also called modular antibody hL0125) VL: DIQLTQSPAIMSASPGERVTMTCRASSSVSSSYLHWYQQRSGQSPKLLIYSTSNLASGVPARFSGSGSGTDYSLTISSLEAEDAATYYCQQYSGSPLTFGSGTKLEIKR VH: QVQLQESGGGLVKPGGSLKLSCAASGFTFSSYAMSWVRQTPDKRLEWVAEISSDGFYTYYPDTVTGRFTISRDNAKNTLYLQMSSLRSEDTAMYYCARDGNYVDYAMDYWGQGTSVTVSS	–	–	–	–
–	–	~10	chimeric anti-Trop2 antibody cL0125 (antibody, V domains shown, Chimeric antibody made from the murine L0125 VL and VH) VH: VKLQESGGGLVKPGGSLKLSCAASGFTFSSYAMSWVRQSPEKRLEWVAEISSDGFYTYYPDTVTGRFTISRDNAKNTLYLEMSSLRSEDTAMYYCARDGNYVDYAMDYWGQGTSVTVSS VL: DIQLTQSPAIMSASPGEKVTMTCRASSSVSSSYLHWYQQRSGASPKLWIYSTSNLASGVPARFSGSGSGTSYSLTISSVEAEDAATYYCQQYSGSPLTFGSGTKLEIKR	–	–	–	–
~10	–	–	bispecific antibody 3scFv×hL0125C (bispecific antibody, The AD2 of the scFv is docked on the DDD2 dimer and locked by disulfide bonds; the complex holds 2 heavy chains, 2 light chains and 1 scFv., hL0125 IgG with DDD2 inserted in the hinge of each heavy chain; The DDD2 dimer docks the AD2 of one anti-CD3 scFv (3scFv), giving a 2+1 format assembled intracellularly; also called Construct C; Format C) heavy: not shown light: DIQLTQSPAIMSASPGERVTMTCRASSSVSSSYLHWYQQRSGQSPKLLIYSTSNLASGVPARFSGSGSGTDYSLTISSLEAEDAATYYCQQYSGSPLTFGSGTKLEIKRTVAAPSVFIFPPSDEQLKSGTASVVCLLNNFYPREAKVQWKVDNALQSGNSQESVTEQDSKDSTYSLSSTLTLSKADYEKHKVYACEVTHQGLSSPVTKSFNRGEC scFv: not shown	~0.02	~0.018	~0.013	~6
